Data as given in IntAct's records for PubMed 11932251.

Molecular target: T1, ranb3_human RANBP3 (UniProt Q9H6Z4)
T1 sequence: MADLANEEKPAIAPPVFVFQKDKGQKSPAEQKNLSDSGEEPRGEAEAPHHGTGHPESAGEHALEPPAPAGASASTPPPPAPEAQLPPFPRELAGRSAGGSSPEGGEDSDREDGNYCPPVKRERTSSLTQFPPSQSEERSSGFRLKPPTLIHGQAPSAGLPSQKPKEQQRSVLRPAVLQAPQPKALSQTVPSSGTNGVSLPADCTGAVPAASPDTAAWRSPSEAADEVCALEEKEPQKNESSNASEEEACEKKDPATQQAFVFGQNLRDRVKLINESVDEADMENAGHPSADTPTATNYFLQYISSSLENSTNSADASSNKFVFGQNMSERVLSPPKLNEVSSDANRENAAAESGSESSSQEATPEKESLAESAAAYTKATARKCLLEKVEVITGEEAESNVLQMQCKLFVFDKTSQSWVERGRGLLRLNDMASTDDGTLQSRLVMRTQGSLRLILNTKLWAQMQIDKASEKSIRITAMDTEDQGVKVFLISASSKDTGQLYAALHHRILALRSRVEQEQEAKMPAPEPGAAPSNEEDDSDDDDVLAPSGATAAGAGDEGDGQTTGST

effect of a mutation on the interaction: increasing interaction
Substance: GTP-binding nuclear protein Ran (Homo sapiens) (from UniProt P62826) Q69L
